This is an account of results in patent publication US20100273983A1, “METHOD OF PURIFYING PEPTIDES BY SELECTIVE PRECIPITATION” (The University of Queensland, priority 2007, published 2010).

Holding throughout (format): physicochemical
Data set [1] in a line: Ethanol precipitation of AM1-spiked E. coli cell lysate supernatant containing MBP; AM1 in supernatants and pellets by RP-HPLC. As for the experimental part:
For the precipitation with ethanol the cell lysate supernatant was spiked with chemically synthesized AM1 peptide to a final concentration of 0.286 μg AM1 per μL. AM1 was custom synthesized by Genscript (Piscataway, USA). The purity was >95% by reversed-phase high performance liquid chromatography. The peptide was stored in a lyophilized form and was dissolved in 0.1% v/v TFA prior to use (cAm1=1 mg/mL).
For the ethanol precipitation experiment, 420 μL of AM1 (in 0.1% v/v TFA, 1 μg/μL) was added to 1050 μL of lysate supernatant and mixed by vortexing. The samples were prepared with different ethanol concentrations ranging from 50-75% (v/v).
The samples were incubated on a roller mixer at speed adjustment 7.5 for 17 h. The tubes were centrifuged at 15,000 rpm for 10 min. […] The protein present in the urea dissolved pellets, as well as the supernants was directly analyzed by Bradford and SDS-PAGE.
For quantitative analysis of AM1 peptide in the supernatants and pellets, reversed-phase high performance liquid chromatography (RP-HPLC) was used with an analytical C18 column (Jupiter 00F-4053-E0, Phenomenex, UK). […]
The retention time of AM1 at the above mentioned elution gradient and flow rate was tR=21.5 min. […] The following equation was used to determine the amount of AM1 in the supernatants and pellets as a function of the peak area detected by RP-HPLC: Detected peak area/1207925=μg of AM1 peptide.

The nature of data set [2]: Solvent (ethanol/acetone) precipitation of TEVp cleaved Trx-P11-2 homogenate; peptide in supernatants and pellets by HPLC.
Assay in data set [3]: as above
As to the method: Homogenate was heat-treated by incubating samples in a water bath at 55° C. for 15 min. The effect on the solubility of the fusion protein was assessed by SDS-PAGE and HPLC analysis of heat-treated homogenate before and after centrifugation (10000×g, 10 min). The effect on the stability of the P11-2 peptide was analyzed by comparing cleavage reactions (at 0, 1, 2 and 3 h) with a final substrate concentration of 160 μM Trx-P11-2 and 8 μM TEVp, prepared with heat-treated and non heat-treated homogenate. Conditions were optimized by evaluating reactions prepared with 8 μM TEVp and 160, 240 and 320 μM Trx-P11-2 after 0, 1, 2 and 3 h. The effect of salt on enzyme activity was assessed by analyzing cleavage reactions prepared with 8 μM TEVp and 320 μM Trx-P11-2, that were supplemented with either 50, 150 or 250 mM NaCl. These cleavage reactions were analyzed at 0, 1, 2 and 3 h by SDS-PAGE and HPLC. After 3 h, ethanol was added to a final concentration of 75% (v/v) and samples were incubated at room temperature for 10 min before centrifuging at 10 000×g for 5 min. The supernatants were diluted with water to reduce the percentage of ethanol and analyzed by HPLC.
All precipitation experiments were performed with the same batch of Trx-P11-2, cleaved with a 40:1 (substrate:enzyme) molar ratio, a substrate concentration of 320 μM (5.12 mg ml^−1) and in the presence of 250 mM NaCl. The precipitation samples were centrifuged for 5 min at 10000×g, and the supernatants collected and analyzed by HPLC to quantify the peptide present. The pellets were resuspended in 6 M guanidine hydrochloride to the same volume as the supernatants, and analysed by HPLC. Acetone and ethanol precipitations were performed using HPLC grade ethanol and acetone, which was added to samples to final concentrations of 20, 40, 60, 65, 70, 75, 80, and 85% (v/v) before incubating for 10 min at room temperature and centrifuging for 5 min at 10000×g. The supernatants were collected and dried using an RVC 2-18 speed-vac (Christ, Osterode, Germany), the pellets were air-dried and both were resuspended in 6 M guanidine hydrochloride. The samples were analyzed by HPLC to quantify the peptide and Bradford assay to quantify the total protein remaining. The peptide and protein remaining in the pellets and supernatants were compared to the results obtained for the starting cleavage reactions to determine the percentages of peptide and protein in each fraction.
Reversed-phase HPLC(RP-HPLC) was carried out using an analytical C5 column (Jupiter, 150 mm×4.6 mm, 5μ, 300 Å) (Phenomenex, Torrance, Calif., USA) connected to a LC-10Avp series HPLC system (Shimadzu, Kyoto, Japan) with a mobile phase A, 0.1% (v/v) trifluoroacetic acid (TFA) in water and B, 90% (v/v) acetonitrile, 0.1% (v/v) TFA in water. Initial analysis of fusion protein and cleavage was performed using a linear gradient from 10% B to 60% B in 50 min at a flow rate of 1 ml min^−1. Peptides were analyzed, collected and quantified using a linear gradient from 10% B to 35% B in 25 min. Final peptide preparation was assessed using a linear gradient from 10% B to 90% B in 80 min. All samples were diluted 1:2 in 6 M guanidine-HCl prior to injection for the purpose of column preservation unless stated otherwise.
The source holds these as a separate data set.

The nature of data set [4]: Stability of peptide and fusion protein in cell homogenate (TEVp cleavage reactions, HPLC/SDS-PAGE). The note with it: homogenate without heat-treatment; degradation most likely by cellular proteases. As to the method: All cleavage reactions were performed with recombinant TEVp, using homogenate prepared as above, where the Trx-P11-2 content had been HPLC quantified. Cleavage reactions were performed in TEVp reaction buffer, at room temperature, in sealed tubes that had been purged of air with nitrogen. All reactions were stopped by the addition of equal volumes of either 6 M guanidine hydrochloride or 2×SDS-PAGE sample buffer and analyzed by HPLC (to quantify peptide generation) and SDS-PAGE (to confirm cleavage of the fusion protein), respectively.
Homogenate was heat-treated by incubating samples in a water bath at 55° C. for 15 min. […] The effect on the stability of the P11-2 peptide was analyzed by comparing cleavage reactions (at 0, 1, 2 and 3 h) with a final substrate concentration of 160 μM Trx-P11-2 and 8 μM TEVp, prepared with heat-treated and non heat-treated homogenate. […] The effect of salt on enzyme activity was assessed by analyzing cleavage reactions prepared with 8 μM TEVp and 320 μM Trx-P11-2, that were supplemented with either 50, 150 or 250 mM NaCl. These cleavage reactions were analyzed at 0, 1, 2 and 3 h by SDS-PAGE and HPLC. […] The supernatants were diluted with water to reduce the percentage of ethanol and analyzed by HPLC.

Turning to “Ac-MKQLADSLHQLARQVRSLEHA-CONH2 (Ac-MKQLADSLHQLARQVRSLEHA-NH2) [AM1]”, the “percentage of AM1 present in the precipitate” value in data set [1] (ethanol 50-75% (v/v), 23° C., 17 h, relative to AM1 in starting material) is “approximately 5%”. Further, the “peptide in the original lysate recovered from the supernatant” value in data set [1] (precipitation at greater than 65% (v/v) ethanol) is listed as “Over 80%”.

QQRFQWQFEQQ [P11-2]: the “solubility of purified peptide at high solvent concentrations” value in data set [2] (purified peptide, results not shown) is reported as “soluble”. For the same substance, the “behaviour of peptide on solvent precipitation without salt” value in data set [2] (standard TEVp reaction buffer (10 mM Tris-Cl, 0.5 mM EDTA, 5 mM DTT, pH 8.0), in homogenate) is “co-precipitated with the contaminating proteins”. The “yield of peptide in the supernatant after precipitation” value was 55% in data set [3] (50 mM NaCl, 75% (v/v) ethanol); 81% in data set [3] (150 mM NaCl, 75% (v/v) ethanol); 95% in data set [3] (250 mM NaCl, 75% (v/v) ethanol). Also, the “peptide losses on acetone precipitation” value in data set [3] (75% (v/v) acetone, 250 mM salt) is “exceeding 30%”. The “peptide yield on ethanol precipitation” value in data set [3] (75% (v/v) ethanol, 250 mM salt) is “over 90%”. The “solubility of peptide in acetone” value in data set [3] (85% (v/v) acetone, 250 mM salt) is listed as “almost completely insoluble”. Also, the “losses of peptide on ethanol precipitation” value in data set [3] (85% (v/v) ethanol, 250 mM salt) is greater than 70%. Also, the “yield of peptide after removal of contaminating proteins with solvent precipitation” value in data set [3] (finalized process, 1 L culture, 75% (v/v) ethanol, 250 mM NaCl) is 95%. In addition, the “losses of peptide on precipitation” value in data set [3] (room temperature, 70-75% (v/v) ethanol or acetone, 250 mM salt) was less than 5%. In addition, the stability in homogenate result in data set [4] is on record as “quickly degraded”.
